Measurements published in patent publication US20040176301A1 (CYCLACEL, published 2004).
Ends that are not written are not given here.

Each binder was assayed against T1, CDK2/Cyclin E complex (UniProt P24941 1-298; P24864 1-410) (assay: cell-based or functional assay).

Binder | % Inhibition, cyclin E/CDK2 kinase [%] | IC50, cyclin E/CDK2 kinase, GST-pRb [µM]
FYHSKRRLIF-NH2 [p21 (150-159) FYHSKRRLIF-NH2] | 80 | 
SMTDFYHSKRRL-NH2 [SMTDFYHSKRRL-NH2] | 40 | 
SKRRLIFSKRKP-NH2 [SKRRLIFSKRKP-NH2] | 70 | 46
YHSKRR-NH2 [YHSKRR-NH2] | 40 | 
DFYHSARRLIFS-NH2 [DFYHSARRLIFS-NH2] | 80 | 12.9
FYHSKRR-NH2 [FYHSKRR-NH2] | 45 | > 200
DFYHSKRRLIFA-NH2 [DFYHSKRRLIFA-NH2] | 70 | 5.4
DFYHSKRRLI-NH2 [DFYHSKRRLI-NH2] | 35 | 
DFAHSKRRLIFS-NH2 [DFAHSKRRLIFS-NH2] | 80 | 5.3
DFYHSKRALIFS-NH2 [DFYHSKRALIFS-NH2] | 70 | 30
DFYHSK-NH2 [DFYHSK-NH2] | 45 | 200
HSKRRLIFS-NH2 [HSKRRLIFS-NH2] | 80 | 3.4
DFYASKRRLIFS-NH2 [DFYASKRRLIFS-NH2] | 80 | 5.1
DFYHSKRRL-NH2 [DFYHSKRRL-NH2] | 50 | 200
YHSKRRLIFS-NH2 [YHSKRRLIFS-NH2] | 80 | 7.3
DFYHSKRRAIFS-NH2 [DFYHSKRRAIFS-NH2] | 30 | 
TDFYHSKRRLIF-NH2 [p21 (148-159) TDFYHSKRRLIF-NH2] | 85 | 2.2
H-KRRLIF-NH2 [H-Lys-Arg-Arg-Leu-Ile-Phe-NH2] | 80 | 1.1
DFYHSKRR-NH2 [DFYHSKRR-NH2] | 40 | 
KRRLIFSK-NH2 [KRRLIFSK-NH2] | 60 | > 200
HSKRRLI-NH2 [HSKRRLI-NH2] | 35 | 

Binder | % Inhibition, cyclin E/CDK2 kinase [%] | IC50, cyclin E/CDK2 kinase, GST-pRb [µM]
FYHSKRRL-NH2 [FYHSKRRL-NH2] | 48 | > 200
FYHSKRRLIFSK-NH2 [FYHSKRRLIFSK-NH2] | 70 | 26
YHSKR-NH2 [YHSKR-NH2] | 25 | 
SKRRLIF-NH2 [SKRRLIF-NH2] | 80 | 7.7
DFYHSKRRLIAS-NH2 [DFYHSKRRLIAS-NH2] | 20 | 
DFYHSKARLIFS-NH2 [DFYHSKARLIFS-NH2] | 25 | 
YHSKRRLI-NH2 [YHSKRRLI-NH2] | 45 | > 200
MTDFYHSKRRLI-NH2 [MTDFYHSKRRLI-NH2] | 35 | 
FYHSKRRLIFS-NH2 [FYHSKRRLIFS-NH2] | 80 | 6.8
AFYHSKRRLIFS-NH2 [AFYHSKRRLIFS-NH2] | 70 | 11
DFYHSKRRLAFS-NH2 [DFYHSKRRLAFS-NH2] | 80 | 14
HSKRRLIFSKRK-NH2 [HSKRRLIFSKRK-NH2] | 90 | 8.7
FYHSKR-NH2 [FYHSKR-NH2] | 20 | 
YHSKRRLIFSKR-NH2 [YHSKRRLIFSKR-NH2] | 80 | 17.6
TSMTDFYHSKRR-NH2 [TSMTDFYHSKRR-NH2] | 35 | 
DFYHSKR-NH2 [DFYHSKR-NH2] | 50 | 200
YHSKRRL-NH2 [YHSKRRL-NH2] | 30 | > 200
DAYHSKRRLIFS-NH2 [DAYHSKRRLIFS-NH2] | 85 | 5.9
YHSKRRLIF-NH2 [p21 (151-159) YHSKRRLIF-NH2] | 80 | 7
FYHSKRRLI-NH2 [FYHSKRRLI-NH2] | 45 | 
HSKRRL-NH2 [HSKRRL-NH2] | 45 | > 200

The binders below were run against CDK4/Cyclin D1 complex (UniProt P11802 1-303; P24385 1-295) (assay: cell-based or functional assay).
Sequence of CDK4/Cyclin D1 complex (P11802 other isoform, or with tags, fused parts or gaps, chain 1 of 2): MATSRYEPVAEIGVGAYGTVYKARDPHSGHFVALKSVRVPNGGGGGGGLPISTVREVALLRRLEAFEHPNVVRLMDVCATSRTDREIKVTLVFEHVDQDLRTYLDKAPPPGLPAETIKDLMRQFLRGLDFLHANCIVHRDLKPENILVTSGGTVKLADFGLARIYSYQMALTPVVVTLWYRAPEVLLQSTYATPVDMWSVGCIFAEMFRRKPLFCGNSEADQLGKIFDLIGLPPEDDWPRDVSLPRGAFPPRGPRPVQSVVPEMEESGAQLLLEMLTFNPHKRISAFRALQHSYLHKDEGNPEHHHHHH
Sequence of CDK4/Cyclin D1 complex (P24385 whole entry, chain 2 of 2): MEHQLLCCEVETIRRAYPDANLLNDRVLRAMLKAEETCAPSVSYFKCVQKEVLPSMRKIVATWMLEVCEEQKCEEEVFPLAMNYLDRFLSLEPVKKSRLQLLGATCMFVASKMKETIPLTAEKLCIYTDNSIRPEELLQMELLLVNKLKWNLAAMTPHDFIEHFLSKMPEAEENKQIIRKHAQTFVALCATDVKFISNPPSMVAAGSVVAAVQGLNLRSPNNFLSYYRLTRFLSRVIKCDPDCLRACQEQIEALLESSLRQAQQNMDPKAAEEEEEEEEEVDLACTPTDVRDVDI

Binder | % Inhibition, cyclin D1/CDK4 kinase [%] | IC50, cyclin D1/CDK4 kinase, GST-pRb [µM]
FYHSKRRLIF-NH2 [p21 (150-159) FYHSKRRLIF-NH2] | 70 | 
SMTDFYHSKRRL-NH2 [SMTDFYHSKRRL-NH2] | 18 | 
SKRRLIFSKRKP-NH2 [SKRRLIFSKRKP-NH2] | 40 | 
YHSKRR-NH2 [YHSKRR-NH2] | 10 | 
DFYHSARRLIFS-NH2 [DFYHSARRLIFS-NH2] | 50 | 200
FYHSKRR-NH2 [FYHSKRR-NH2] | 20 | 
DFYHSKRRLIFA-NH2 [DFYHSKRRLIFA-NH2] | 60 | 40
DFYHSKRRLI-NH2 [DFYHSKRRLI-NH2] | 20 | 
DFAHSKRRLIFS-NH2 [DFAHSKRRLIFS-NH2] | 56 | 121
DFYHSKRALIFS-NH2 [DFYHSKRALIFS-NH2] | 30 | 
DFYHSK-NH2 [DFYHSK-NH2] | 10 | 
HSKRRLIFS-NH2 [HSKRRLIFS-NH2] | 65 | 32
DFYASKRRLIFS-NH2 [DFYASKRRLIFS-NH2] | 60 | 73
DFYHSKRRL-NH2 [DFYHSKRRL-NH2] | 10 | 
YHSKRRLIFS-NH2 [YHSKRRLIFS-NH2] | 70 | 20
DFYHSKRRAIFS-NH2 [DFYHSKRRAIFS-NH2] | 30 | 
TDFYHSKRRLIF-NH2 [p21 (148-159) TDFYHSKRRLIF-NH2] | 72 | 
H-KRRLIF-NH2 [H-Lys-Arg-Arg-Leu-Ile-Phe-NH2] | 72 | > 200
DFYHSKRR-NH2 [DFYHSKRR-NH2] | 10 | 
KRRLIFSK-NH2 [KRRLIFSK-NH2] | 20 | 

Binder | % Inhibition, cyclin D1/CDK4 kinase [%] | IC50, cyclin D1/CDK4 kinase, GST-pRb [µM]
HSKRRLI-NH2 [HSKRRLI-NH2] | 10 | 
FYHSKRRL-NH2 [FYHSKRRL-NH2] | 20 | 
FYHSKRRLIFSK-NH2 [FYHSKRRLIFSK-NH2] | 70 | 41
YHSKR-NH2 [YHSKR-NH2] | 10 | 
SKRRLIF-NH2 [SKRRLIF-NH2] | 72 | 54
DFYHSKRRLIAS-NH2 [DFYHSKRRLIAS-NH2] | 35 | 
DFYHSKARLIFS-NH2 [DFYHSKARLIFS-NH2] | 30 | 
YHSKRRLI-NH2 [YHSKRRLI-NH2] | 15 | 
MTDFYHSKRRLI-NH2 [MTDFYHSKRRLI-NH2] | 11 | 
FYHSKRRLIFS-NH2 [FYHSKRRLIFS-NH2] | 70 | 22
AFYHSKRRLIFS-NH2 [AFYHSKRRLIFS-NH2] | 72 | 22
DFYHSKRRLAFS-NH2 [DFYHSKRRLAFS-NH2] | 61 | 53
HSKRRLIFSKRK-NH2 [HSKRRLIFSKRK-NH2] | 80 | 34
FYHSKR-NH2 [FYHSKR-NH2] | 10 | 
YHSKRRLIFSKR-NH2 [YHSKRRLIFSKR-NH2] | 60 | 45
TSMTDFYHSKRR-NH2 [TSMTDFYHSKRR-NH2] | 30 | 
YHSKRRL-NH2 [YHSKRRL-NH2] | 10 | 
DAYHSKRRLIFS-NH2 [DAYHSKRRLIFS-NH2] | 76 | 37
YHSKRRLIF-NH2 [p21 (151-159) YHSKRRLIF-NH2] | 70 | 
FYHSKRRLI-NH2 [FYHSKRRLI-NH2] | 20 | 

Biological target: T1, CDK2/Cyclin E complex
Experiment: cell-based or functional assay
Remark: another data set of the same source

Binder | % Inhibition, cyclin E/CDK2 kinase [%] | IC50, cyclin E/CDK2 kinase [nM]
HAKRRLFG-NH2 [P21 C-terminus (S153A) LFG HAKRRLFG-NH2] | 82 | 900

The binders below were run against CDK2/cyclin A (UniProt P24941 1-298; P20248 1-432) (assay: cell-based or functional assay).

Binder | Relative activity, Kinase Inhibition (CDK2/cyclin A kinase assay, pRb substrate, [ATP] = 100 µM)
H-HAKRRLIL-NH2 [H-His-Ala-Lys-Arg-Arg-Leu-Ile-Leu-NH2] | 0.3 relative to H-His-Ala-Lys-Arg-Arg-Leu-Ile-Phe-NH2 (=1)
